Target: T1, FLAG-Eya3 (human), wild type, Q99504
T1 chain: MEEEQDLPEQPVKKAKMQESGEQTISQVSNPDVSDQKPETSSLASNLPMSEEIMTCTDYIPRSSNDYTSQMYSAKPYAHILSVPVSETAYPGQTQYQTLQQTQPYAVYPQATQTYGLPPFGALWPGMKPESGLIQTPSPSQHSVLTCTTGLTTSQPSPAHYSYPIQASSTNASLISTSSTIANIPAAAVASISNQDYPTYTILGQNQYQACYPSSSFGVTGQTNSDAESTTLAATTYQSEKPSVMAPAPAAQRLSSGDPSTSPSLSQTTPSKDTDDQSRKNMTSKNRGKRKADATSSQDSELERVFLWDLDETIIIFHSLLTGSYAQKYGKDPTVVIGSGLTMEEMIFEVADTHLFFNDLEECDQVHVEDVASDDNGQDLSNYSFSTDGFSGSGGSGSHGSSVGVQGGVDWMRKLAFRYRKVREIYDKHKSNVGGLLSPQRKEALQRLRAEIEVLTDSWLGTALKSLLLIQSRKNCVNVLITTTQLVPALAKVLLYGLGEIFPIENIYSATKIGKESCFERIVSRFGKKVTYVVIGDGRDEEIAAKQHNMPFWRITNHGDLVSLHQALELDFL
Assay: FLAG co-IP followed by Western blot, band quantification
Settings: chain shown with the change; cotransfected HEK cells; three biological replicates; parent: est. 1.0; read off a plot

B1: HA-tagged B55α (HA-B55α), wild type, P63151 F84-L90/GG (protein)
chain: MAGAGGGNDIQWCFSQVKGAVDDDVAEADIISTVEFNHSGELLATGDKGGRVVIFQQEQENKIQSHSRGEYNVYSTFQSHEPEGGEIEEKINKIRWLPQKNAAQFLLSTNDKTIKLWKISERDKRPEGYNLKEEDGRYRDPTTVTTLRVPVFRPMDLMVEASPRRIFANAHTYHINSISINSDYETYLSADDLRINLWHLEITDRSFNIVDIKPANMEELTEVITAAEFHPNSCNTFVYSSSKGTIRLCDMRASALCDRHSKLFEEPEDPSNRSFFSEIISSISDVKFSHSGRYMMTRDYLSVKIWDLNMENRPVETYQVHEYLRSKLCSLYENDCIFDKFECCWNGSDSVVMTGSYNNFFRMFDRNTKRDITLEASRENNKPRTVLKPRKVCASGKRKKDEISVDSLDFNKKILHTAWHPKENIIAVATTNNLYIFQDKVN
- ratio to parent: 0.58

Reference: paper PMC11328874 (2024)
